Assay results published in patent US20160039936A1, “FIBROBLAST GROWTH FACTOR RECEPTOR INHIBITION FOR THE TREATMENT OF DISEASE” (UNIVERSITY OF MIAMI, priority 2011, published 2016).

Columns and labels:
C57BL/6 mice [1] = assay: Intra-myocardial injection of FGF23 in mice; type: in vivo, mouse; details: 7.5 ng FGF23 intra-myocardial
Experimental: Twelve-week old adult C57BL/6 mice (Jackson Laboratories) underwent cardiac surgery using a standard operative procedure that has been described previously for intra-myocardial implantation of stem cells (Amado et al., Proc. Natl. Acad. Sci. U.S.A., 102(32):11474-11479, 2005). All procedures were performed by a single investigator who was blinded to the specific treatment group. All protocols and experimental procedures were approved by the Institutional Animal Care and Use Committee at the University of Miami Miller School of Medicine. Briefly, mice were anesthetized with isoflurane and an incision was made between the 3rd and 4th rib to reveal a cardiac window. Three injections of purified recombinant murine FGF23 in PBS or PBS alone were delivered into the free wall of the left ventricle via a 30-gauge needle attached to a standing Hamilton syringe. At each of the three sites, 10 μl were injected for a total of 30 μl containing a total of 7.5 ng FGF23. Cardiac function was evaluated by Vevo 770 imaging system (Visual Sonics, Toronto, Canada) at baseline and 2 weeks after surgery. Long and short axis 2D parasternal views and short axis M mode views were recorded under general anesthesia with isoflurane inhalation delivered through a nose mask. The heart rate was maintained above 400 bpm with controlled body temperature set to 37° C. At 7- and 14-days post-injection, animals were sacrificed, hearts were isolated, perfused ex-vivo (6 ml of 10% Formalin with 4 ml of 20 mM KCl), stored overnight in 10% formalin for fixation, and then serially sectioned (7 μm slices) and stained with hematoxylin and eosin. Age-matched untreated animals were sacrificed at 14 weeks of life. […]
(§1) Short-axis cardiac sections were used to quantify myocardial thickness by measuring the distance from the inner to the outer myocardial zone at the mid-chamber zone. […] Since klothro-ablated kl/kl mice display severe growth retardation with small hearts (Kuro-o et al., Nature, 390(6655):45-51, 1997), we also measured relative wall thickness calculated as two times the anterior wall thickness divided by left ventricular internal diameter. Total RNA was isolated from flash frozen hearts using TRIzol (Invitrogen) and RT-PCR analyses were performed as described above.
(§2) We measured cross-sectional surface area of cardiac myocytes in paraffin-embedded short-axis sections of the heart. Briefly, 7 μm thick sections were deparaffinized according to our established protocols. To specifically label cardiac myocytes, we used mouse monoclonal MF20 antibody against sarcomeric myosin at 1:200 and Cy5-conjugated donkey-anti mouse (Invitrogen) as secondary antibody at 1:400. To visualize nuclei, fixed tissue was incubated with 4′,6-diamidino-2-phenylindole (DAPI; 400 ng/ml in PBS) for 5 minutes. To visualize cellular borders, fixed tissue was incubated with wheat germ agglutinin (WGA) conjugated to Alexa Fluor 555 (Invitrogen) at 1 mg/ml in PBS containing 10 mM sodium azide. Immunofluorescence images were taken on a Leica TCS-SP5 confocal microscope with a 63× oil objective. Leica AF6000 fluorescence software was used to quantify cross-sectional cell surface area of 25 cells per field at four fields along the mid-chamber free wall based on WGA-positive staining.
Blood was collected at sacrifice via cardiac puncture and was centrifuged at 4° C. and 14,000 rpm for 15 minutes. Plasma supernatants were collected, stored at −80° C., and subsequently analyzed in batches for FGF23 (C-terminal mouse assay, Immutopics), PTH (1-84 assay, Alpco Immunoassays), and phosphate, calcium, BUN and creatinine (Ortho Vitros 250 Chemistry Analyzer).

[2] = In vivo biological activity of FGF23 (serum phosphate); set-up: species or system rat; details: Sprague-Dawley rats, single i.v. 40 μg/kg, over 4 hours
From the text: We used recombinant mouse FGF23 (6His-tagged Tyr25-Val251 (Arg179Gln)), FGF2 (Ala11-Ser154), and FGF4 (Ala30-Leu202) proteins (R&D Systems). We chose the mutant form of FGF23 because it is resistant to furin protease-mediated degradation, which prolongs the protein's half-life.
We used recombinant mouse FGF23 (6His-tagged Tyr25-Val251 [Arg179Gln]; 26.1 kDa), and FGF2 (Ala11-Ser154; 16.2 kDa) (R&D Systems) as before (Faul et al., 2011).

C57BL/6 mice [3] = assay: Intravenous injection of FGFs (with or without Fc-FGFR decoy receptors) in mice; type: in vivo, mouse; details: FGF23 40 μg/kg i.v. twice daily 5 days
Experimental: Twelve-week old adult C57BL/6 mice underwent tail vein injections using standard protocols as previously described for the systemic delivery of plasmid DNA (Faul et al., 2008). Briefly, mice were placed in a restrainer and 40 μg/kg of FGF23 dissolved in 200 μl of PBS were injected into the tail vein of 5 mice twice daily with eight hours in between injections for 5 consecutive days. Four mice underwent the same injection schedule using 200 μl of PBS alone as negative control. On the morning of the 6th day, 16 hours after the final tail vein injections, animals were sacrificed and the hearts were isolated and prepared using the same protocol as described above.
as §1, §2
Next, we wanted to determine the effectiveness of this FGFR trapping system on FGF-induced LVH in mice. To our knowledge, Fc decoy receptors have not yet been used to study FGFR function in vivo in any biological context, but served as valuable tools to analyze the functions of other receptor tyrosine kinases, like receptors for vascular endothelial growth factor (VEGFR) and their role in tumor growth and metastasis. We used similar Fc-FGFR concentrations as described for Fc-VEGFR in animal models of cancer (Lin J et al., Cancer Res. 2005; 65(15):6901-9).

B1: FGF23: recombinant mouse FGF23, 6His-tagged Tyr25-Val251 (Arg179Gln) (R&D Systems) (protein)
chain: YPDTSPLLGSNWGSLTHLYTATARTSYHLQIHRDGHVDGTPHQTIYSALMITSEDAGSVVITGAMTRRFLCMDLHGNIFGSLHFSPENCKFRQWTLENGYDVYLSQKHHYLVSLGRAKRIFQPGTNPPPFSQFLARRNEVPLLHFYTVRPRRHTQSAEDPPERDPLNVLKPRPRATPVPVSCSRELPSAEEGGPAASDPLGVLRRGRGDARGGAGGADRCRPFPRFV
modifications: left off: small tags and cut ends
C57BL/6 mice [1]
  cross-sectional surface area of cardiac myocytes (WGA): significant increase
  expression of β-MHC, ANP and BNP: increase
  α-MHC and MCAD mRNA levels: decrease
C57BL/6 mice [1]; day 7, vs vehicle
  thickness of the left ventricular free wall: significant increase
C57BL/6 mice [1]; day 14
  left ventricular internal diameter in diastole: significantly decreased
  relative wall thickness: increased
  thickness of the left ventricular free wall: increased further
C57BL/6 mice [1]; day 14, vs vehicle
  ratio of heart weight to tibial length: significantly increased
  thickness of the interventricular septum: increased significantly
C57BL/6 mice [1]; days 7 and 14
  levels of FGF23, phosphate, calcium, PTH, BUN, or creatinine vs vehicle: no significant differences
C57BL/6 mice [1]; echocardiography over time
  ejection fraction: no change
[2]
  serum phosphate levels: significantly decreased
C57BL/6 mice [3]; vs vehicle
  cardiac weight/tibial length: significantly increased
  cross-sectional surface area of individual cardiac myocytes: increased
  expression of α-MHC and MCAD mRNA levels: decreased expression
  expression of β-MHC, ANP and BNP: increased expression
  left ventricular wall thickness: increased
C57BL/6 mice [3]; 16 hours after final injection, vs PBS
  FGF23 levels at the time of sacrifice: significantly increased
